Assay results taken from PMC3629973 (Nuclear medicine and biology, 2012).
“Also recorded” adds a separate entry of the source.

Tests used:
PC-3 cells [1] = test: Blocking experiment, cellular uptake of tracer; format: cell-based, human; conditions: 50 μg blocker added 15 min prior to tracer
[2] = system: PC-3 tumor uptake in nude mice; conditions: mouse, in vivo; cited from earlier work
GRPr = conditions: read-out: GRPr binding affinity; nonmetallated probe; cited from earlier work
[3] = later time points; cited from earlier work
[4] = molecular target: αvβ3 receptors on PC-3 cells (Homo sapiens, UniProt P05106+P06756); test: Cell binding assay, displacement of 125I-Echistatin in PC-3 cells
Chain of αvβ3 receptors on PC-3 cells (P06756 31-889 limits assumed): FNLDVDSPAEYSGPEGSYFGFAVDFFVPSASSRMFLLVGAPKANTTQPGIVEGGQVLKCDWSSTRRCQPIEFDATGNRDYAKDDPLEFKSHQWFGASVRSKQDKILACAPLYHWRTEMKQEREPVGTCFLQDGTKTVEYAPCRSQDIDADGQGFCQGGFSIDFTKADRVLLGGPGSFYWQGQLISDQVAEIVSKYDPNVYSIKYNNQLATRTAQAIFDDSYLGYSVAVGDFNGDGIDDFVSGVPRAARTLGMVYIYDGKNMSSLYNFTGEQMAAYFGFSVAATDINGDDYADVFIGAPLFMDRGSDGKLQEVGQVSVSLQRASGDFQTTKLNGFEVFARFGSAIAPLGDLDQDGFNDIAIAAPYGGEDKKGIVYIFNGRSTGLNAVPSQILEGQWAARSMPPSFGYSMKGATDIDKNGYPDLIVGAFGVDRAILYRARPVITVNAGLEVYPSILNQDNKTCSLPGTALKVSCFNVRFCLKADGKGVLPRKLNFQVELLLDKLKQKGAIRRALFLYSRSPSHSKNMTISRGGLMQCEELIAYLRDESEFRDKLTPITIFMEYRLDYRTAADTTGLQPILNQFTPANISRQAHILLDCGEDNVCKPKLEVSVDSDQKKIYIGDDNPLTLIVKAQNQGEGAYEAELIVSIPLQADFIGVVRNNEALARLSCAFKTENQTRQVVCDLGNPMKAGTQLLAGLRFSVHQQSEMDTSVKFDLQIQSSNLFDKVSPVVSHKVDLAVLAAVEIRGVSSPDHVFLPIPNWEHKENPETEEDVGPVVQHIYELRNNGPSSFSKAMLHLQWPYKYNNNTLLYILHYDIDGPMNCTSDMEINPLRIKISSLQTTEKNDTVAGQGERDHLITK
Chain of αvβ3 receptors on PC-3 cells (P06756 891-1048 partner limits assumed): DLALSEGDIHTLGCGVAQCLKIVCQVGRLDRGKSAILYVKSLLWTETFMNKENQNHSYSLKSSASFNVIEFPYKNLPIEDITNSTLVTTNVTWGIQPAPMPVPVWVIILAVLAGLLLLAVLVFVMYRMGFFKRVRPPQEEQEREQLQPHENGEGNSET
Chain of αvβ3 receptors on PC-3 cells (P05106 27-788): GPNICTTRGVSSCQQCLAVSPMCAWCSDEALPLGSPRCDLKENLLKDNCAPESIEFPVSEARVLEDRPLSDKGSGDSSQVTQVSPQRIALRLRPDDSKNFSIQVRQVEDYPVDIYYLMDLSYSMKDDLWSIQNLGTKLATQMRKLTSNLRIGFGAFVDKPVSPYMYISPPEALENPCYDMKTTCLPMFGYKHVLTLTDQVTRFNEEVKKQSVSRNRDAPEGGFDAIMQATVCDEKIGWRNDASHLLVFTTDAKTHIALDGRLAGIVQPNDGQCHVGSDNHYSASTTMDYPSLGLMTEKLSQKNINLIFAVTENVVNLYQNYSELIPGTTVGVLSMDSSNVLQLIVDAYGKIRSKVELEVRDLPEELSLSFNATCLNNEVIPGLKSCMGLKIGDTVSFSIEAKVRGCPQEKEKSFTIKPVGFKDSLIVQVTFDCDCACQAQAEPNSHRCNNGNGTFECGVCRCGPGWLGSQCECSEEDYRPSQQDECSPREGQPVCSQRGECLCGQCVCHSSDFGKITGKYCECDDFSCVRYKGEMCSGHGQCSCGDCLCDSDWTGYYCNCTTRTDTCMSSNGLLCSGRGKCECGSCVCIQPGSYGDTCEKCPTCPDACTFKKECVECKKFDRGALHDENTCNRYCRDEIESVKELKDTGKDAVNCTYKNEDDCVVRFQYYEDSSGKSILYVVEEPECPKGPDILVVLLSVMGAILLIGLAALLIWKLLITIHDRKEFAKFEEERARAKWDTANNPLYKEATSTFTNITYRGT

CF-1 mice = test: Biodistribution in healthy CF-1 mice; format: in vivo, mouse; conditions: CF-1 mice, tail vein injection, after 1 h p.i.
[5] = Biodistribution in healthy CF-1 mice; format: in vivo, mouse; conditions: female, CF-1, mouse, iv, 750 kBq, total radioactivity
PC-3 cells [6] = test: In vitro internalization assay; format: cell-based, human; conditions: 37°C, postincubation
in vivo = conditions: female, SCID, mouse, iv, 750 kBq, total radioactivity; for tissue uptake at 1 h / tissue uptake at 4 h / tissue uptake at 24 h: Biodistribution
[7] = Biodistribution in PC-3 tumor-bearing SCID mice; conditions: female, mouse, in vivo, iv, total radioactivity; for tissue uptake at 24 h: 24 h p.i.
[8] = system: PC-3 tumor-bearing SCID mice; test: Biodistribution in PC-3 tumor-bearing SCID mice; conditions: PC-3 tumor-bearing SCID mice, tail vein injection, 1 h p.i., mean±S.D., n=5, bilateral xenografts
[9] = system: PC-3 tumor-bearing SCID mouse; test: MicroPET/CT imaging; format: in vivo; conditions: PC-3 tumor-bearing mouse, 26 MBq via tail vein, 15 h p.i.

With NO2A-RGD the “Reduction of cellular uptake of ^64Cu-NO2A-RGD-Glu-6-Ahx-BBN(7-14)NH2 tracer” value (PC-3 cells [1]) was 65%.
For ^64Cu-NO3A-RGD, the PC-3 tumor retention [2] is given as 0.55±0.32 %ID/g.
For NO3A-RGD-BBN(7-14)NH2, the IC50 (GRPr) is given as 92.8 ± 3.53 nM.
For ^64Cu-NO3A-RGD-BBN(7-14)NH2, the “Internalization rate compared to ^64Cu-NO2A-RGD-Glu-6-Ahx-BBN(7-14)NH2” value [3] is listed as “approximately three times higher”, the PC-3 tumor retention [2] is listed as 2.04±0.35 %ID/g and the “Retention in the kidneys” value [2] is listed as 1.87±0.41 %ID/g.
For ^natCu-NO2A-RGD, the “Displacement of 125I-Echistatin (binding affinity for αvβ3 receptors)” value [4] was “minimal displacement; also recorded: extremely poor binding affinity”.
In the case of ^64Cu-NO3A-BBN(7-14)NH2, the PC-3 tumor retention [2] is listed as 0.44±0.39 %ID/g.
With `CSCC[C@H](NC(=O)[C@H](CC(C)C)NC(=O)[C@H](Cc1c[nH]cn1)NC(=O)CNC(=O)[C@@H](NC(=O)[C@H](C)NC(=O)[C@H](Cc1c[nH]c2ccccc12)NC(=O)[C@H](CCC(N)=O)NC(=O)CCCCCNC(=O)[C@H](CCC(=O)NCCCC[C@@H]1NC(=O)[C@@H](Cc2ccc(O)cc2)NC(=O)[C@H](CC(=O)O)NC(=O)CNC(=O)[C@H](CCCNC(=N)N)NC1=O)NC(=O)CN1CCN(CC(=O)O)CCN(CC(=O)O)CC1)C(C)C)C(N)=O` [^64Cu-NO2A-RGD-Glu-6-Ahx-BBN(7-14)NH2, metal not drawn] the Urinary excretion (CF-1 mice) was ~85%, the tissue uptake at 1 h ([5]; pancreas) was 5.9 ± 1.74 %ID/g and the tissue uptake dose at 1 h ([5]; whole blood) was 0.42 %ID. For the same compound, the “Time of maximum internalization” value (PC-3 cells [6]) was ~ 90 min, the tissue uptake dose at 1 h (in vivo) was 0.72 ± 0.1 %ID and the tissue uptake dose at 4 h (in vivo) was 0.16 ± 0.05 %ID. The tissue uptake dose at 24 h (in vivo) was 0.18 ± 0.02 %ID, the tissue uptake at 1 h (in vivo; Bone) was 0.52 ± 0.27 %ID/g and the tissue uptake at 4 h (in vivo; Bone) was 0.13 ± 0.08 %ID/g. The tissue uptake at 24 h (in vivo; Bone) was 0.13 ± 0.15 %ID/g, the tissue uptake at 1 h (in vivo; Brain) was 0.05 ± 0.01 %ID/g and the tissue uptake at 4 h (in vivo; Brain) was 0.04 ± 0.02 %ID/g. The tissue uptake at 24 h (in vivo; Brain) was 0.03 ± 0.02 %ID/g, the tissue uptake at 1 h (in vivo; Heart) was 0.35 ± 0.1 %ID/g and the tissue uptake at 4 h (in vivo; Heart) was 0.22 ± 0.05 %ID/g. It also gave a tissue uptake at 24 h (in vivo; Heart) of 0.48 ± 0.17 %ID/g, a tissue uptake at 1 h (in vivo; Large intestine) of 1.34 ± 0.11 %ID/g and a tissue uptake at 4 h (in vivo; Large intestine) of 6.86 ± 0.88 %ID/g. For the same compound, the tissue uptake at 24 h (in vivo; Large intestine) was 0.85 ± 0.18 %ID/g, the tissue uptake at 1 h (in vivo; Lung) was 0.97 ± 0.25 %ID/g and the tissue uptake at 1 h (in vivo; Muscle) was 0.22 ± 0.08 %ID/g. For the same compound, the tissue uptake at 4 h (in vivo; Muscle) was 0.09 ± 0.04 %ID/g, the tissue uptake at 24 h (in vivo; Muscle) was 0.08 ± 0.1 %ID/g and the tissue uptake at 1 h (in vivo; Pancreas) was 21.6 ± 3.3 %ID/g. The tissue uptake at 4 h (in vivo; Pancreas) was 13.2 ± 1.79 %ID/g, the tissue uptake at 24 h (in vivo; Pancreas) was 5.18 ± 0.57 %ID/g and the tissue uptake at 1 h (in vivo; Small intestine) was 5.21 ± 0.75 %ID/g. For the same compound, the tissue uptake at 4 h (in vivo; Small intestine) was 2.1 ± 0.4 %ID/g, the tissue uptake at 24 h (in vivo; Small intestine) was 0.78 ± 0.14 %ID/g and the tissue uptake at 1 h ([7]; ICR SCID, 750 kBq (~20 uCi)) was 1.04 ± 0.08 %ID/g. For the same compound, the tissue uptake at 1 h ([7]; SCID, 750 kBq, Biodistribution, Bladder, PC-3 tumor-bearing SCID mice, tail vein injection, 1 h p.i., mean±S.D., n=5) was 3.39 ± 3.54 %ID/g, the tissue uptake at 4 h ([7]; SCID, 750 kBq, Biodistribution, Bladder, PC-3 tumor-bearing SCID mice, tail vein injection, 4 h p.i., mean±S.D., n=5) was 0.55 ± 0.33 %ID/g and the tissue uptake at 24 h ([7]; SCID, 750 kBq, Biodistribution, Bladder, PC-3 tumor-bearing SCID mice, tail vein injection, mean±S.D., n=5) was 0.31 ± 0.29 %ID/g. For the same compound, the tissue uptake at 24 h ([7]; SCID, 750 kBq, Biodistribution, Tumor, PC-3 tumor-bearing SCID mice, tail vein injection, mean±S.D., n=5, bilateral xenografts) was 2.42 ± 0.57 %ID/g, the “Biodistribution, Tumor” value [8] was 3.95±1.04 %ID/g and the MicroPET image quality [9] was “high-quality, high-contrast images”.
